Measurements from the supplement of paper PMC12458215.
± gives the uncertainty stated by the source.

Test system: HEK293T
Assay: plasma membrane surface immunostaining intensity (anti-HA, deep receptor scanning) (arbitrary fluorescence units); higher = higher plasma membrane expression

Sequence	plasma membrane surface immunostaining intensity (GPCR class: A)	further results
MDFLNSSDQNLTSEELLNRMPSKILVSLTLSGLALMTTTINSLVIAAIIVTRKLHHPANYLICSLAVTDFLVAVLVMPFSIVYIVRESWIMGQVVCDIWLSVDITCCTCSILHLSAIALDRYRAITDAVEYARKRTPKHAGIMITIVWIISVFISMPPLFWRHQGTSRDDECIIKHDHIVSTIYSTFGAFYIPLALILILYYKIYRAAKTLYHKRQASRIAKEEVNGQVLLESGEKSTKSVSTSYVLEKSLSDPSTDFDKIHSTVRSLRSEFKHEKSWRRQKISGTRERKAATTLGLILGAFVICWLPFFVKELVVNVCDKCKISEEMSNFLAWLGYLNSLINPLIYTIFNEDFKKAFQKLVRCRC [HTR1F]	2040 ± 280	
MGTARIAPGLALLLCCPVLSSAYALVDADDVMTKEEQIFLLHRAQAQCEKRLKEVLQRPASIMESDKGWTSASTSGKPRKDKASGKLYPESEEDKEAPTGSRYRGRPCLPEWDHILCWPLGAPGEVVAVPCPDYIYDFNHKGHAYRRCDRNGSWELVPGHNRTWANYSECVKFLTNETREREVFDRLGMIYTVGYSVSLASLTVAVLILAYFRRLHCTRNYIHMHLFLSFMLRAVSIFVKDAVLYSGATLDEAERLTEEELRAIAQAPPPPATAAAGYAGCRVAVTFFLYFLATNYYWILVEGLYLHSLIFMAFFSEKKYLWGFTVFGWGLPAVFVAVWVSVRATLANTGCWDLSSGNKKWIIQVPILASIVLNFILFINIVRVLATKLRETNAGRCDTRQQYRKLLKSTLVLMPLFGVHYIVFMATPYTEVSGTLWQVQMHYEMLFNSFQGFFVAIIYCFCNGEVQAEIKKSWSRWTLALDFKRKARSGSSSYSYGPMVSHTSVTNVGPRVGLGLPLSPRLLPTATTNGHPQLPGHAKPGTPALETLETTPPAMAAPKDDGFLNGSCSGLDEEASGPERPPALLQEEWETVM [PTH1R]		plasma membrane surface immunostaining intensity (GPCR class: B): 770 ± 69
MVLEVSDHQVLNDAEVAALLENFSSSYDYGENESDSCCTSPPCPQDFSLNFDRAFLPALYSLLFLLGLLGNGAVAAVLLSRRTALSSTDTFLLHLAVADTLLVLTLPLWAVDAAVQWVFGSGLCKVAGALFNINFYAGALLLACISFDRYLNIVHATQLYRRGPPARVTLTCLAVWGLCLLFALPDFIFLSAHHDERLNATHCQYNFPQVGRTALRVLQLVAGFLLPLLVMAYCYAHILAVLLVSRGQRRLRAMRLVVVVVVAFALCWTPYHLVVLVDILMDLGALARNCGRESRVDVAKSVTSGLGYMHCCLNPLLYAFVGVKFRERMWMLLLRLGCPNQRGLQRQPSSSRRDSSWSETSEASYSGL [CXCR3]	530 ± 49	
MVNNFSQAEAVELCYKNVNESCIKTPYSPGPRSILYAVLGFGAVLAAFGNLLVMIAILHFKQLHTPTNFLIASLACADFLVGVTVMPFSTVRSVESCWYFGDSYCKFHTCFDTSFCFASLFHLCCISVDRYIAVTDPLTYPTKFTVSVSGICIVLSWFFSVTYSFSIFYTGANEEGIEELVVALTCVGGCQAPLNQNWVLLCFLLFFIPNVAMVFIYSKIFLVAKHQARKIESTASQAQSSSESYKERVAKRERKAAKTLGIAMAAFLVSWLPYLVDAVIDAYMNFITPPYVYEILVWCVYYNSAMNPLIYAFFYQWFGKAIKLIVSGKVLRTDSSTTNLFSEEVETD [TAAR9]	136 ± 34	
MKSPFYRCQNTTSVEKGNSAVMGGVLFSTGLLGNLLALGLLARSGLGWCSRRPLRPLPSVFYMLVCGLTVTDLLGKCLLSPVVLAAYAQNRSLRVLAPALDNSLCQAFAFFMSFFGLSSTLQLLAMALECWLSLGHPFFYRRHITLRLGALVAPVVSAFSLAFCALPFMGFGKFVQYCPGTWCFIQMVHEEGSLSVLGYSVLYSSLMALLVLATVLCNLGAMRNLYAMHRRLQRHPRSCTRDCAEPRADGREASPQPLEELDHLLLLALMTVLFTMCSLPVIYRAYYGAFKDVKEKNRTSEEAEDLRALRFLSVISIVDPWIFIIFRSPVFRIFFHKIFIRPLRYRSRCSNSTNMESSL [PTGDR]	6000 ± 81	
MGNCLHRAELSPSTENSSQLDFEDVWNSSYGVNDSFPDGDYGANLEAAAPCHSCNLLDDSALPFFILTSVLGILASSTVLFMLFRPLFRWQLCPGWPVLAQLAVGSALFSIVVPVLAPGLGSTRSSALCSLGYCVWYGSAFAQALLLGCHASLGHRLGAGQVPGLTLGLTVGIWGVAALLTLPVTLASGASGGLCTLIYSTELKALQATHTVACLAIFVLLPLGLFGAKGLKKALGMGPGPWMNILWAWFIFWWPHGVVLGLDFLVRSKLLLLSTCLAQQALDLLLNLAEALAILHCVATPLLLALFCHQATRTLLPSLPLPEGWSSHLDTLGSKS [ACKR1]	5030 ± 340	
MDQFPESVTENFEYDDLAEACYIGDIVVFGTVFLSIFYSVIFAIGLVGNLLVVFALTNSKKPKSVTDIYLLNLALSDLLFVATLPFWTHYLINEKGLHNAMCKFTTAFFFIGFFGSIFFITVISIDRYLAIVLAANSMNNRTVQHGVTISLGVWAAAILVAAPQFMFTKQKENECLGDYPEVLQEIWPVLRNVETNFLGFLLPLLIMSYCYFRIIQTLFSCKNHKKAKAIKLILLVVIVFFLFWTPYNVMIFLETLKLYDFFPSCDMRKDLRLALSVTETVAFSHCCLNPLIYAFAGEKFRRYLYHLYGKCLAVLCGRSVHVDFSSSESQRSRHGSVLSSNFTYHTSDGDALLLL [CX3CR1]	196 ± 34	
MEGALAANWSAEAANASAAPPGAEGNRTAGPPRRNEALARVEVAVLCLILLLALSGNACVLLALRTTRQKHSRLFFFMKHLSIADLVVAVFQVLPQLLWDITFRFYGPDLLCRLVKYLQVVGMFASTYLLLLMSLDRCLAICQPLRSLRRRTDRLAVLATWLGCLVASAPQVHIFSLREVADGVFDCWAVFIQPWGPKAYITWITLAVYIVPVIVLAACYGLISFKIWQNLRLKTAAAAAAEAPEGAAAGDGGRVALARVSSVKLISKAKIRTVKMTFIIVLAFIVCWTPFFFVQMWSVWDANAPKEASAFIIVMLLASLNSCCNPWIYMLFTGHLFHELVQRFLCCSASYLKGRRLGETSASKKSNSSSFVLSHRSSSQRSCSQPSTA [OXTR]	5390 ± 230	
MCSGNQTSQNQTASTDFTLTGLFAESKHAALLYTVTFLLFLMALTGNALLILLIHSEPRLHTPMYFFISQLALMDLMYLCVTVPKMLVGQVTGDDTISPSGCGIQMFFYLTLAGAEVFLLAAMAYDRYAAVCRPLHYPLLMNQRVCQLLVSACWVLGMVDGLLLTPITMSFPFCQSRKILSFFCETPALLKLSCSDVSLYKTLMYLCCILMLLAPIMVISSSYTLILHLIHRMNSAAGHRKALATCSSHMIIVLLLFGASFYTYMLPSSYHTAEQDMMVSAFYTIFTPVLNPLIYSLRNKDVTRALRSMMQSRMNQEK [OR2T3]		plasma membrane surface immunostaining intensity (GPCR class: A (Olfactory)): 450 ± 200
MRPPSPLPARWLCVLAGALAWALGPAGGQAARLQEECDYVQMIEVQHKQCLEEAQLENETIGCSKMWDNLTCWPATPRGQVVVLACPLIFKLFSSIQGRNVSRSCTDEGWTHLEPGPYPIACGLDDKAASLDEQQTMFYGSVKTGYTIGYGLSLATLLVATAILSLFRKLHCTRNYIHMHLFISFILRAAAVFIKDLALFDSGESDQCSEGSVGCKAAMVFFQYCVMANFFWLLVEGLYLYTLLAVSFFSERKYFWGYILIGWGVPSTFTMVWTIARIHFEDYGCWDTINSSLWWIIKGPILTSILVNFILFICIIRILLQKLRPPDIRKSDSSPYSRLARSTLLLIPLFGVHYIMFAFFPDNFKPEVKMVFELVVGSFQGFVVAILYCFLNGEVQAELRRKWRRWHLQGVLGWNPKYRHPSGGSNGATCSTQVSMLTRVSPGARRSSSFQAEVSLV [VIPR1]		plasma membrane surface immunostaining intensity (GPCR class: B): 5730 ± 200
MTTSPILQLLLRLSLCGLLLQRAETGSKGQTAGELYQRWERYRRECQETLAAAEPPSGLACNGSFDMYVCWDYAAPNATARASCPWYLPWHHHVAAGFVLRQCGSDGQWGLWRDHTQCENPEKNEAFLDQRLILERLQVMYTVGYSLSLATLLLALLILSLFRRLHCTRNYIHINLFTSFMLRAAAILSRDRLLPRPGPYLGDQALALWNQALAACRTAQIVTQYCVGANYTWLLVEGVYLHSLLVLVGGSEEGHFRYYLLLGWGAPALFVIPWVIVRYLYENTQCWERNEVKAIWWIIRTPILMTILINFLIFIRILGILLSKLRTRQMRCRDYRLRLARSTLTLVPLLGVHEVVFAPVTEEQARGALRFAKLGFEIFLSSFQGFLVSVLYCFINKEVQSEIRRGWHHCRLRRSLGEEQRQLPERAFRALPSGSGPGEVPTSRGLSSGTLPGPGNEASRELESYC [GIPR]		plasma membrane surface immunostaining intensity (GPCR class: B): 6435 ± 30
MDSGPLWDANPTPRGTLSAPNATTPWLGRDEELAKVEIGVLATVLVLATGGNLAVLLTLGQLGRKRSRMHLFVLHLALTDLAVALFQVLPQLLWDITYRFQGPDLLCRAVKYLQVLSMFASTYMLLAMTLDRYLAVCHPLRSLQQPGQSTYLLIAAPWLLAAIFSLPQVFIFSLREVIQGSGVLDCWADFGFPWGPRAYLTWTTLAIFVLPVTMLTACYSLICHEICKNLKVKTQAWRVGGGGWRTWDRPSPSTLAATTRGLPSRVSSINTISRAKIRTVKMTFVIVLAYIACWAPFFSVQMWSVWDKNAPDEDSTNVAFTISMLLGNLNSCCNPWIYMGFNSHLLPRPLRHLACCGGPQPRMRRRLSDGSLSSRHTTLLTRSSCPATLSLSLSLTLSGRPRPEESPRDLELADGEGTAETIIF [AVPR1B]	665 ± 110	
MASTSNVTELIFTGLFQDPAVQSVCFVVFLPVYLATVVGNGLIVLTVSISKSLDSPMYFFLSCLSLVEISYSSTIAPKFIIDLLAKIKTISLEGCLTQIFFFHFFGVAEILLIVVMAYDCYVAICKPLHYMNIISRQLCHLLVAGSWLGGFCHSIIQILVIIQLPFCGPNVIDHYFCDLQPLFKLACTDTFMEGVIVLANSGLFSVFSFLILVSSYIVILVNLRNHSAEGRHKALSTCASHITVVILFFGPAIFLYMRPSSTFTEDKLVAVFYTVITPMLNPIIYTLRNAEVKIAIRRLWSKKENPGRE [OR4B1]		plasma membrane surface immunostaining intensity (GPCR class: A (Olfactory)): 131 ± 38
MSITKAWNSSSVTMFILLGFTDHPELQALLFVTFLGIYLTTLAWNLALIFLIRGDTHLHTPMYFFLSNLSFIDICYSSAVAPNMLTDFFWEQKTISFVGCAAQFFFFVGMGLSECLLLTAMAYDRYAAISSPLLYPTIMTQGLCTRMVVGAYVGGFLSSLIQASSIFRLHFCGPNIINHFFCDLPPVLALSCSDTFLSQVVNFLVVVTVGGTSFLQLLISYGYIVSAVLKIPSAEGRWKACNTCASHLMVVTLLFGTALFVYLRPSSSYLLGRDKVVSVFYSLVIPMLNPLIYSLRNKEIKDALWKVLERKKVFS [OR5A1]		plasma membrane surface immunostaining intensity (GPCR class: A (Olfactory)): 122 ± 20
MLTLTRIRTVSYEVRSTFLFISVLEFAVGFLTNAFVFLVNFWDVVKRQALSNSDCVLLCLSISRLFLHGLLFLSAIQLTHFQKLSEPLNHSYQAIIMLWMIANQANLWLAACLSLLYCSKLIRFSHTFLICLASWVSRKISQMLLGIILCSCICTVLCVWCFFSRPHFTVTTVLFMNNNTRLNWQIKDLNLFYSFLFCYLWSVPPFLLFLVSSGMLTVSLGRHMRTMKVYTRNSRDPSLEAHIKALKSLVSFFCFFVISSCAAFISVPLLILWRDKIGVMVCVGIMAACPSGHAAILISGNAKLRRAVMTILLWAQSSLKVRADHKADSRTLC [TAS2R38]		plasma membrane surface immunostaining intensity (GPCR class: Taste): 123 ± 18
MEKWNHTSNDFILLGLLPPNQTGIFLLCLIILIFFLASVGNSAMIHLIHVDPRLHTPMYFLLSQLSLMDLMYISTTVPKMAYNFLSGQKGISFLGCGVQSFFFLTMACSEGLLLTSMAYDRYLAICHSLYYPIRMSKMMCVKMIGGSWTLGSINSLAHTVFALHIPYCRSRAIDHFFCDVPAMLLLACTDTWVYEYMVFVSTSLFLLFPFIGITSSCGRVLFAVYHMHSKEGRKKAFTTISTHLTVVIFYYAPFVYTYLRPRNLRSPAEDKILAVFYTILTPMLNPIIYSLRNKEVLGAMRRVFGIFSFLKE [OR2L13]		plasma membrane surface immunostaining intensity (GPCR class: A (Olfactory)): 139 ± 4.1
